Measured values taken from the supplement of paper PMC9732359.
± gives the uncertainty stated by the source.

Test: protein stability index of a GFP-peptide fusion (yeast GPS) (PSI 1-4); higher = more stable; sorted into four equal gates, so the index is relative within each strain
Procedure, shortened: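 Plasmids in a pooled yeast library fused tiled 17-residue yeast protein peptides downstream of GFP and also expressed Cherry. Mid-log cultures grown without leucine were sorted into four equal gates by GFP/Cherry fluorescence ratio. Each gate's plasmids were PCR-amplified and Illumina-sequenced, and reads were matched to strains by barcodes. The protein stability index is derived by multiplying each gate's read frequency by its gate number and summing the results.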

Sequence | protein stability index (doa10∆) | protein stability index (pdr5∆) | protein stability index (san1∆) | protein stability index (ubr1∆)
LNWFRTTNMNVNNCIWA [RGR1] | 2.22 ± 0.057 | 1.34 ± 0.045 | 1.15 ± 0.12 | 1.28 ± 0.036
YGYWFDCRMGNFYIQYD [AAR2] | 2.51 ± 0.048 | 2.08 ± 0.048 | 1.93 ± 0.081 | 2.49 ± 0.034
NVYVLPKNLLKKFIEIS [PRP8] | 1.93 ± 0.048 | 2.16 ± 0.045 | 2.06 ± 0.084 | 1.79 ± 0.048
TEQTKSKNPLSLTEATK [YLR335W/NUP2] | 3.08 ± 0.045 | 2.97 ± 0.053 | 2.91 ± 0.062 | 3.14 ± 0.051
KQEQEEKIKSKKINRRN [YCG1] | 3.4 ± 0.18 | 2.87 ± 0.17 | 2.75 ± 0.29 | 3.22 ± 0.15
STPDQRKRVYNIKFLSK [ESC2] | 3.34 ± 0.22 |  | 2.81 ± 0.08 | 2.93 ± 0.12
WGMEPLEDYVPHQSPDA [RPB2] | 2.85 ± 0.11 | 3.3 ± 0.13 | 2.98 ± 0.081 | 2.98 ± 0.076
TEKNREIYKQLNDRQEE [YIL149C/MLP2] | 3.42 ± 0.073 | 3.41 ± 0.063 | 3.57 ± 0.042 | 3.12 ± 0.057
DHFIHLRNLHMKRMVAQ [SNF12] | 2.78 ± 0.063 | 2.52 ± 0.083 | 2.77 ± 0.062 | 2.45 ± 0.047
QQQQIQVPLQQTQAIAQ [YGR119C/NUP57] | 2.61 ± 0.061 | 2.82 ± 0.048 | 2.88 ± 0.039 | 2.885 ± 0.028
DALVKRFKNSVKWYHFD [PRE7] | 3.19 ± 0.13 | 3.37 ± 0.12 | 3.18 ± 0.072 | 3.08 ± 0.07
VNISAVDNTTEQSNSRK [YCG1] | 3.26 ± 0.23 | 2.35 ± 0.28 | 3.1 ± 0.25 | 
GGLFGNSAQNNSTTSGG [YGR119C/NUP57] | 3.08 ± 0.069 | 3.36 ± 0.11 | 2.78 ± 0.068 | 3.06 ± 0.096
SIQDTSTVAKNVSFVLP [YCG1] | 3.21 ± 0.11 | 2.92 ± 0.074 | 3.29 ± 0.08 | 3.04 ± 0.054
LHKRLHGVSFKKRAPRA [RPL31A] | 2.9 ± 0.12 | 2.73 ± 0.13 | 3 ± 0.16 | 3.17 ± 0.11
LSFGTATSDNKTTNTTP [YJL041W/NSP1] | 2.21 ± 0.088 | 3.05 ± 0.083 | 2.24 ± 0.1 | 2.15 ± 0.094
ELGEFFVNGVATSFSRK [FAS2] | 2.98 ± 0.07 | 2.6 ± 0.075 | 2.63 ± 0.1 | 2.69 ± 0.048
TAVGKAAVVKTSSRQTV [RPT5] | 3.39 ± 0.065 | 3.23 ± 0.07 | 3.28 ± 0.074 | 3.15 ± 0.052
LADDDEERFSELFKGYL [RPL5] | 1.59 ± 0.13 | 2.05 ± 0.14 | 2.84 ± 0.2 | 3.01 ± 0.28
SNDSQSHFDYNTLEFII [YCG1] | 2.52 ± 0.2 | 2.78 ± 0.19 |  | 2.89 ± 0.14
QIFKVAGENAPSIVFID [RPT2] | 1.84 ± 0.098 | 1.2 ± 0.059 | 1.31 ± 0.13 | 1.33 ± 0.066
NGDLTVSLCAKNMGLVP [SSN2] | 2.22 ± 0.081 | 2.23 ± 0.079 | 2.13 ± 0.091 | 2.17 ± 0.087
QLLNGQKIVVVRAEELN [RPL16A] | 1.28 ± 0.049 | 1.31 ± 0.051 | 1.24 ± 0.13 | 1.21 ± 0.056
AVAVVVDPIQSVKGKVV [RPN11] | 2.22 ± 0.1 | 2.64 ± 0.14 | 2.29 ± 0.094 | 2.84 ± 0.18
DSVAAIGIPVNKASLAQ [QCR2] | 2.63 ± 0.056 | 2.61 ± 0.052 | 2.52 ± 0.081 | 2.82 ± 0.042

Sequence | protein stability index (doa10∆) | protein stability index (pdr5∆) | protein stability index (san1∆) | protein stability index (ubr1∆)
TLFVRDQDSAVVSSNIK [QCR2] | 2.67 ± 0.23 | 2.52 ± 0.2 |  | 2.67 ± 0.17
FVKVTKATLELLKLIEP [RPL7A] | 3.06 ± 0.11 | 2.87 ± 0.096 | 2.62 ± 0.15 | 2.91 ± 0.13
IEKFEQVPDSLDDQIFV [RPN6] | 3.31 ± 0.079 | 3.35 ± 0.065 | 3.53 ± 0.053 | 3.27 ± 0.079
IQVFEKPFLKKTQEYYT [CDC53] | 2.36 ± 0.073 | 2.33 ± 0.056 | 2.57 ± 0.078 | 2.57 ± 0.053
RRGYQVYREVCAACHSL [CYT1] | 2.22 ± 0.073 | 1.94 ± 0.059 | 1.47 ± 0.085 | 1.59 ± 0.039
QKCFKLTHRLGGDTCSS [POP1] | 2.27 ± 0.059 | 1.85 ± 0.056 | 2.55 ± 0.068 | 2.51 ± 0.054
ISRNGDTSYKIDGKTVS [SMC1] | 2.72 ± 0.14 | 3.01 ± 0.074 | 2.9 ± 0.064 | 3.29 ± 0.081
DLIRSESMLHLSIWIKN [IRR1] | 1.62 ± 0.057 | 2.01 ± 0.05 | 1.51 ± 0.098 | 1.8 ± 0.04
QKGITSYAVSPYAQKPL [QCR8] | 2.92 ± 0.13 | 3.05 ± 0.14 | 2.92 ± 0.063 | 3.13 ± 0.089
KSNTIPVTSIPSTNKKL [GAL11] | 2.67 ± 0.076 | 2.87 ± 0.073 | 2.9 ± 0.044 | 2.96 ± 0.057
NNNDNDANRNANNIVNI [GRR1] | 2.94 ± 0.052 | 3 ± 0.05 | 2.9 ± 0.036 | 3.04 ± 0.045
GNDTISKFYNMKQPYVF [SSN2] | 3.12 ± 0.12 | 3.05 ± 0.11 | 3.2 ± 0.057 | 3.2 ± 0.065
DKLLKRLKEKGSRVLIF [ISW2] | 1.35 ± 0.042 | 1.61 ± 0.059 | 1.36 ± 0.1 | 1.36 ± 0.052
VATNIVNEDPIFHPMIH [YML103C/NUP188] | 2.53 ± 0.046 | 2.63 ± 0.045 | 2.44 ± 0.045 | 2.58 ± 0.038
KKKQQGAKQTQGGAMNK [SRP72] | 2.07 ± 0.12 | 2.54 ± 0.1 | 3.37 ± 0.082 | 3.58 ± 0.062
RTMLELITQLDGFDPRG [RPT1] | 2.6 ± 0.061 | 2.81 ± 0.061 | 2.91 ± 0.066 | 2.73 ± 0.096
ISGNPPLLYNSLCTVWK [SRB5] | 2.56 ± 0.051 | 2.41 ± 0.045 | 2.34 ± 0.048 | 2.38 ± 0.055
ATLKEIKSIIEQRKQKL [SMC3] | 2.89 ± 0.087 | 3.16 ± 0.08 | 3.16 ± 0.046 | 3.04 ± 0.052
VGVGKLNKLYGGAKSRG [RPS19A] | 3.29 ± 0.066 | 3.39 ± 0.1 | 3.2 ± 0.047 | 3.58 ± 0.11
TSILELGQLYVTMGAKD [RPN6] | 3.23 ± 0.11 | 2.85 ± 0.083 | 2.96 ± 0.071 | 2.96 ± 0.059
HAGTAIGIMASDGIVLA [PRE9] | 2.96 ± 0.095 | 3.02 ± 0.14 | 3.09 ± 0.1 | 2.42 ± 0.14
LSQSRIKIKSLEYEISK [YIL149C/MLP2] | 2.08 ± 0.051 | 2.68 ± 0.055 | 2.37 ± 0.07 | 2.07 ± 0.041
APSVPEFIYLTKVLQFA [SNF2] | 2.82 ± 0.1 | 2.5 ± 0.087 | 1.78 ± 0.12 | 2.91 ± 0.087
GVLLRDAHGVTQARVIT [RPS13] | 2.4 ± 0.075 | 2.57 ± 0.093 | 2.85 ± 0.14 | 2.27 ± 0.082
LTQLLSMMSDGIEHFDI [RPO31] | 2.93 ± 0.073 | 3.05 ± 0.085 | 3.1 ± 0.052 | 2.72 ± 0.089
